# Results taken from IntAct's records for PubMed 31515488.
# B1: Zinc finger protein Aiolos (Homo sapiens), Q9UKT9 (parent)
# chain: MEDIQTNAELKSTQEQSVPAESAAVLNDYSLTKSHEMENVDSGEGPANEDEDIGDDSMKVKDEYSERDENVLKSEPMGNAEEPEIPYSYSREYNEYENIKLERHVVSFDSSRPTSGKMNCDVCGLSCISFNVLMVHKRSHTGERPFQCNQCGASFTQKGNLLRHIKLHTGEKPFKCHLCNYACQRRDALTGHLRTHSVEKPYKCEFCGRSYKQRSSLEEHKERCRTFLQSTDPGDTASAEARHIKAEMGSERALVLDRLASNVAKRKSSMPQKFIGEKRHCFDVNYNSSYMYEKESELIQTRMMDQAINNAISYLGAEALRPLVQTPPAPTSEMVPVISSMYPIALTRAEMSNGAPQELEKKSIHLPEKSVPSERGLSPNNSGHDSTDTDSNHEERQNHIYQQNHMVLSRARNGMPLLKEVPRSYELLKPPPICPRDSVKVINKEGEVMDVYRCDHCRVLFLDYVMFTIHMGCHGFRDPFECNMCGYRSHDRYEFSSHIARGEHRALLK
# partner: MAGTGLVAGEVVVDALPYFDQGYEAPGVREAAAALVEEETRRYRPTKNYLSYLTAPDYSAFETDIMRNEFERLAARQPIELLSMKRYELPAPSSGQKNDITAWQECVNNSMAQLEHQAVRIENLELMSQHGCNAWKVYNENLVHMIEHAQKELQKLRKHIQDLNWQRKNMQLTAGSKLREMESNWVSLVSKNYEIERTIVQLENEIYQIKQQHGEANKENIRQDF
# B2: Zinc finger protein Aiolos (Homo sapiens), Q9UKT9 (parent)
# chain: B1 chain
# partner: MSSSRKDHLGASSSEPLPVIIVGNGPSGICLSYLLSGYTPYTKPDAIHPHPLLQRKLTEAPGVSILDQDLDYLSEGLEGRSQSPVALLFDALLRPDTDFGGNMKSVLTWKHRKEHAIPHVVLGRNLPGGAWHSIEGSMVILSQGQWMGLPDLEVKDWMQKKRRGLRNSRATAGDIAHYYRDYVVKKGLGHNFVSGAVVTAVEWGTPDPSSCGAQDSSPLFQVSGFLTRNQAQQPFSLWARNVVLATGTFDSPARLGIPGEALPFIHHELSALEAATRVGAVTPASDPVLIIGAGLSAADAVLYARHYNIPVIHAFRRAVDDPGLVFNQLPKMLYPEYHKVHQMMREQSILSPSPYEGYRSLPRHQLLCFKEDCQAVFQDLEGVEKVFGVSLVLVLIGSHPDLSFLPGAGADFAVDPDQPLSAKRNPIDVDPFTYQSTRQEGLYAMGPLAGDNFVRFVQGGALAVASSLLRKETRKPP
# B3: Geminin (Homo sapiens), O75496 (parent)
# chain: MNPSMKQKQEEIKENIKNSSVPRRTLKMIQPSASGSLVGRENELSAGLSKRKHRNDHLTSTTSSPGVIVPESSENKNLGGVTQESFDLMIKENPSSQYWKEVAEKRRKALYEALKENEKLHKEIEQKDNEIARLKKENKELAEVAEHVQYMAELIERLNGEPLDNFESLDNQEFDSEEETVEDSLVEDSEIGTCAEGTVSSSTDAKPCI
# partner: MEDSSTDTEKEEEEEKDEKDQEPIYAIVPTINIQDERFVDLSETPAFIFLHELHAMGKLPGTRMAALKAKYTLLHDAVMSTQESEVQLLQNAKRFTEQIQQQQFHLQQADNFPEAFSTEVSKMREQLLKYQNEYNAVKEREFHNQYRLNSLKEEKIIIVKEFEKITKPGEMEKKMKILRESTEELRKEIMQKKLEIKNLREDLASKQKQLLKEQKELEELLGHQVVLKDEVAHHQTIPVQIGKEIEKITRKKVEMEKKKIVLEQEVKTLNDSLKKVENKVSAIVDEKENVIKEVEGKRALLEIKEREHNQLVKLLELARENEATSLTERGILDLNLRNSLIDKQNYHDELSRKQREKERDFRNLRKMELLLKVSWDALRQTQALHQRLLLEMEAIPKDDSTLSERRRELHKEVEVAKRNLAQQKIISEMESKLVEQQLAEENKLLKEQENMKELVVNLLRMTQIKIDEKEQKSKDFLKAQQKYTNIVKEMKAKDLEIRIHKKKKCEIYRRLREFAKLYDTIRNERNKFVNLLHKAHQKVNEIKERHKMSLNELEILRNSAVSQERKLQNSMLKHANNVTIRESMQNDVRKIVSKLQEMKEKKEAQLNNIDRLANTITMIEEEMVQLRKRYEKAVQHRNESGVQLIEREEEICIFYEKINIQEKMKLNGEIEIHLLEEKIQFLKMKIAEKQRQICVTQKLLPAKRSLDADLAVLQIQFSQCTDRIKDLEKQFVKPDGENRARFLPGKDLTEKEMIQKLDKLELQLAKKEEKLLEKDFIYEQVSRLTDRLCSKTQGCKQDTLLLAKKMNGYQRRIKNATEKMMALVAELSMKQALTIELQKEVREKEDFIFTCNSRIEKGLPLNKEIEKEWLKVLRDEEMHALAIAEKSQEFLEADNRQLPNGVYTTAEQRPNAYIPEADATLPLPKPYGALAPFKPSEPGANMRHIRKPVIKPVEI
# B4: N-acetyltransferase 8 (Homo sapiens), Q9UHE5 (parent)
# chain: MAPCHIRKYQESDRQWVVGLLSRGMAEHAPATFRQLLKLPRTLILLLGGPLALLLVSGSWLLALVFSISLFPALWFLAKKPWTEYVDMTLCTDMSDITKSYLSERGSCFWVAESEEKVVGMVGALPVDDPTLREKRLQLFHLFVDSEHRRQGIAKALVRTVLQFARDQGYSEVILDTGTIQLSAMALYQSMGFKKTGQSFFCVWARLVALHTVHFIYHLPSSKVGSL
# partner: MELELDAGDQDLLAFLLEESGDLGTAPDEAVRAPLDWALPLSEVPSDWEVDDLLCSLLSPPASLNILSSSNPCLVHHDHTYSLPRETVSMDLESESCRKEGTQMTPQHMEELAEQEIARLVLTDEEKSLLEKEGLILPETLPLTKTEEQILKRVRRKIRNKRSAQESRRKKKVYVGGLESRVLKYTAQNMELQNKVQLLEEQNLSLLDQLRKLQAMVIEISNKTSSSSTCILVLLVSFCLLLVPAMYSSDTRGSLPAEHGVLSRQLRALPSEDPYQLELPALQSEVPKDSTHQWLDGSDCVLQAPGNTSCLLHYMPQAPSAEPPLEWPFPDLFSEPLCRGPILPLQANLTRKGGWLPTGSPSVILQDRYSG
# B5: BAG family molecular chaperone regulator 5 (Homo sapiens), Q9UL15 (parent)
# chain: MDMGNQHPSISRLQEIQKEVKSVEQQVIGFSGLSDDKNYKKLERILTKQLFEIDSVDTEGKGDIQQARKRAAQETERLLKELEQNANHPHRIEIQNIFEEAQSLVREKIVPFYNGGNCVTDEFEEGIQDIILRLTHVKTGGKISLRKARYHTLTKICAVQEIIEDCMKKQPSLPLSEDAHPSVAKINFVMCEVNKARGVLIALLMGVNNNETCRHLSCVLSGLIADLDALDVCGRTEIRNYRREVVEDINKLLKYLDLEEEADTTKAFDLRQNHSILKIEKVLKRMREIKNELLQAQNPSELYLSSKTELQGLIGQLDEVSLEKNPCIREARRRAVIEVQTLITYIDLKEALEKRKLFACEEHPSHKAVWNVLGNLSEIQGEVLSFDGNRTDKNYIRLEELLTKQLLALDAVDPQGEEKCKAARKQAVRLAQNILSYLDLKSDEWEY
# B6: Calcium-binding and coiled-coil domain-containing protein 2 (Homo sapiens), Q13137 (parent)
# chain: MEETIKDPPTSAVLLDHCHFSQVIFNSVEKFYIPGGDVTCHYTFTQHFIPRRKDWIGIFRVGWKTTREYYTFMWVTLPIDLNNKSAKQQEVQFKAYYLPKDDEYYQFCYVDEDGVVRGASIPFQFRPENEEDILVVTTQGEVEEIEQHNKELCKENQELKDSCISLQKQNSDMQAELQKKQEELETLQSINKKLELKVKEQKDYWETELLQLKEQNQKMSSENEKMGIRVDQLQAQLSTQEKEMEKLVQGDQDKTEQLEQLKKENDHLFLSLTEQRKDQKKLEQTVEQMKQNETTAMKKQQELMDENFDLSKRLSENEIICNALQRQKERLEGENDLLKRENSRLLSYMGLDFNSLPYQVPTSDEGGARQNPGLAYGNPYSGIQESSSPSPLSIKKCPICKADDICDHTLEQQQMQPLCFNCPICDKIFPATEKQIFEDHVFCHSL
# partner: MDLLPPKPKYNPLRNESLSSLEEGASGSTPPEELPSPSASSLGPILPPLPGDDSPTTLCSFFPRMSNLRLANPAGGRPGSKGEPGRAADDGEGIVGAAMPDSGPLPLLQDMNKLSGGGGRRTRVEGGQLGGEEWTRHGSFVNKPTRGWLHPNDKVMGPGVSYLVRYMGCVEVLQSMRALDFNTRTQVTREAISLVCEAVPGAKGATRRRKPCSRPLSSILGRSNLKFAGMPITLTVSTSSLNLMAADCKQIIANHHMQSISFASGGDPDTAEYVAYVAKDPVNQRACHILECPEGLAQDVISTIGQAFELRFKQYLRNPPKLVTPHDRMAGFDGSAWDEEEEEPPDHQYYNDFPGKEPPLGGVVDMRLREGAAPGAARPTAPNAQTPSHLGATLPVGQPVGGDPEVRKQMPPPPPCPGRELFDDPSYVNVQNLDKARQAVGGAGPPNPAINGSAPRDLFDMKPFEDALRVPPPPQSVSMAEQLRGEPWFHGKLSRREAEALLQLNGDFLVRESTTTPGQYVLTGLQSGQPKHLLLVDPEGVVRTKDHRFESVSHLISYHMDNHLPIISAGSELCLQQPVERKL
# B7: Kelch-like protein 3 (Homo sapiens), Q9UH77 (parent)
# chain: MEGESVKLSSQTLIQAGDDEKNQRTITVNPAHMGKAFKVMNELRSKQLLCDVMIVAEDVEIEAHRVVLAACSPYFCAMFTGDMSESKAKKIEIKDVDGQTLSKLIDYIYTAEIEVTEENVQVLLPAASLLQLMDVRQNCCDFLQSQLHPTNCLGIRAFADVHTCTDLLQQANAYAEQHFPEVMLGEEFLSLSLDQVCSLISSDKLTVSSEEKVFEAVISWINYEKETRLEHMAKLMEHVRLPLLPRDYLVQTVEEEALIKNNNTCKDFLIEAMKYHLLPLDQRLLIKNPRTKPRTPVSLPKVMIVVGGQAPKAIRSVECYDFEEDRWDQIAELPSRRCRAGVVFMAGHVYAVGGFNGSLRVRTVDVYDGVKDQWTSIASMQERRSTLGAAVLNDLLYAVGGFDGSTGLASVEAYSYKTNEWFFVAPMNTRRSSVGVGVVEGKLYAVGGYDGASRQCLSTVEQYNPATNEWIYVADMSTRRSGAGVGVLSGQLYATGGHDGPLVRKSVEVYDPGTNTWKQVADMNMCRRNAGVCAVNGLLYVVGGDDGSCNLASVEYYNPVTDKWTLLPTNMSTGRSYAGVAVIHKSL
# B8: Glutathione S-transferase Mu 5 (Homo sapiens), P46439 (parent)
# chain: MPMTLGYWDIRGLAHAIRLLLEYTDSSYVEKKYTLGDAPDYDRSQWLNEKFKLGLDFPNLPYLIDGAHKITQSNAILRYIARKHNLCGETEEEKIRVDILENQVMDNHMELVRLCYDPDFEKLKPKYLEELPEKLKLYSEFLGKRPWFAGDKITFVDFLAYDVLDMKRIFEPKCLDAFLNLKDFISRFEGLKKISAYMKSSQFLRGLLFGKSATWNSK
# partner: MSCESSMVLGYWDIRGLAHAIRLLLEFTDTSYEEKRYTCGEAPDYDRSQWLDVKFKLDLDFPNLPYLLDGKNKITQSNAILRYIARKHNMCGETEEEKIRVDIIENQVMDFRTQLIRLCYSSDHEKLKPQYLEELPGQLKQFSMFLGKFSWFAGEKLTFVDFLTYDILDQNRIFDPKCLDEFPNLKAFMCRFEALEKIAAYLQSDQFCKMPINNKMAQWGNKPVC
# Variants of: B1
# Settings: with spf27_human BCAS2, O75934
row,effect of a mutation on the interaction,Variant
1,with no effect,A24V

# Variants of: B2
# Settings: with osgi1_human OSGIN1, Q9UJX0
row,effect of a mutation on the interaction,Variant
1,with no effect,A24V
2,with no effect,N119D

# Variants of: B3
# Settings: with cc146_human CCDC146, Q8IYE0
row,effect of a mutation on the interaction,Variant
1,with no effect,N15H
2,with no effect,E167D

# Variants of: B4
# Settings: with creb3_human CREB3, O43889
row,effect of a mutation on the interaction,Variant
1,with no effect,F143S

# Variants of: B5
# Settings: with thap1_human THAP1, Q9NVV9
# thap1_human THAP1, Q9NVV9, sequence (Q9NVV9 whole entry): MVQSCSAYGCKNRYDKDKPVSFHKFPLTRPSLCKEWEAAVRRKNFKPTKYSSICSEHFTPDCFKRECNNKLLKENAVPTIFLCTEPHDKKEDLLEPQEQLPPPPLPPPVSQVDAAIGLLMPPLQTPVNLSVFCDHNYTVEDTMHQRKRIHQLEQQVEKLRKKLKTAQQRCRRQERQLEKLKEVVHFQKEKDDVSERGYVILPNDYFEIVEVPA
row,effect of a mutation on the interaction,Variant
1,with no effect,I279L

# Variants of: B6
# Settings: with shc1_human SHC1, P29353
row,effect of a mutation on the interaction,Variant
1,with no effect,E222K

# Variants of: B7
# Settings: with cul3_human CUL3, Q13618
row,effect of a mutation on the interaction,Variant
1,disrupting interaction strength,R228G
2,disrupting interaction strength,C164F

# Variants of: B8
# Settings: with gstm3_human GSTM3, P21266
row,effect of a mutation on the interaction,Variant
1,with no effect,L179P
